{"source": "patent US20190389961A1", "about": "(INNATE PHARMA, published 2019)", "binders": {"B1": {"name": "antibody I-394 (antibody, V domains shown)", "VH": "EVQLQQSGPELVKPGASVKMSCKASGYTFTDYNMHWVKQSHGRTLEWIGYIVPLNGGSTFNQKFKGRATLTVNTSSRTAYMELRSLTSEDSAAYYCARGGTRFAYWGQGTLVTVSA", "VL": "not shown", "notes": "Mouse variable regions; Produced in CHO with human IgG1 constant domains carrying L234A/L235E/G237A/A330S/P331S (Kabat EU numbering) and a human Ck constant domain"}}, "key": {"[1]": {"molecular_target": "T1, human CD39 (vascular CD39, NTPDase1) expressed at the surface of cells (human, UniProt P49961 1-510)", "T1 construct": "also called huCD39; CHO-huCD39", "T1 sequence": "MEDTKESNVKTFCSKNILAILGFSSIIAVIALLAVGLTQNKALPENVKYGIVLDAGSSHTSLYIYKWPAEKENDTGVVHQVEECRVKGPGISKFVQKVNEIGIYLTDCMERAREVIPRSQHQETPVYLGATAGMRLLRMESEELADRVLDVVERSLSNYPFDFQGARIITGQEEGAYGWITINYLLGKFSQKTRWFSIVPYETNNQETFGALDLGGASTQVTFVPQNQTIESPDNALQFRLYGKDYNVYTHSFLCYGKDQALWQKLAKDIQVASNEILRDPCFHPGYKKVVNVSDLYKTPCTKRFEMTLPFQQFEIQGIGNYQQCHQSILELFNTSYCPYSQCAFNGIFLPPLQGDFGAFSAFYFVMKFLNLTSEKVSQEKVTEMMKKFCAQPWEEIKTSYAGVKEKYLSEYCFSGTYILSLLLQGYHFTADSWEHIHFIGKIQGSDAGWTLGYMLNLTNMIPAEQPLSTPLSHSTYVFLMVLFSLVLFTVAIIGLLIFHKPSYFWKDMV", "test": "flow cytometry titration on CHO-huCD39 cells", "experimental": "(§1) Cells were incubated with various concentration of unlabeled anti-CD39 antibody from 30 μg/ml to 5×10-⁴ μg/ml, for 30 minutes at 4° C. After washes, cells were incubated with Goat anti-mouse H+L labeled secondary antibody for 30 min at 4° C."}, "[2]": {"molecular_target": "T2, murine CD39 expressed on CHO cells (murine, UniProt P55772 1-510)", "T2 construct": "whole, on cells; also called CHO-moCD39; moCD39", "T2 sequence (looked up)": "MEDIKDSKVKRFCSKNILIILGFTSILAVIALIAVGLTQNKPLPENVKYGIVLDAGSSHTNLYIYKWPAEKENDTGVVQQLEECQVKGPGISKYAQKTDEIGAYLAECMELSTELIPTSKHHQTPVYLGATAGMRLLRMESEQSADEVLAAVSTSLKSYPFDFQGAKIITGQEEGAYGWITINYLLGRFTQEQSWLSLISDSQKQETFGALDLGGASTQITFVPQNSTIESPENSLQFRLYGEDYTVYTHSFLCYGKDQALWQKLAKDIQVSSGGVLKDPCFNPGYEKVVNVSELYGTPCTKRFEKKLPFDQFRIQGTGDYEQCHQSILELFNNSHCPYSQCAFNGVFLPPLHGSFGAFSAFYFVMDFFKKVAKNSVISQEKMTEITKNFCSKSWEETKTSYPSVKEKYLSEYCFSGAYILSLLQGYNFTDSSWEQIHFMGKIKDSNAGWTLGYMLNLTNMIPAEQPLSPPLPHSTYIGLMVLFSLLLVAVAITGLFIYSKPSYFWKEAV", "test": "flow cytometry titration on CHO-moCD39 cells", "experimental": "as §1"}, "[3]": {"molecular_target": "T3, recombinant human CD39-L2 (NTPDase6, ENTPD6) (human, UniProt O75354 61-484, limits assumed)", "T3 construct": "Genbank NP_001238 is printed", "T3 sequence": "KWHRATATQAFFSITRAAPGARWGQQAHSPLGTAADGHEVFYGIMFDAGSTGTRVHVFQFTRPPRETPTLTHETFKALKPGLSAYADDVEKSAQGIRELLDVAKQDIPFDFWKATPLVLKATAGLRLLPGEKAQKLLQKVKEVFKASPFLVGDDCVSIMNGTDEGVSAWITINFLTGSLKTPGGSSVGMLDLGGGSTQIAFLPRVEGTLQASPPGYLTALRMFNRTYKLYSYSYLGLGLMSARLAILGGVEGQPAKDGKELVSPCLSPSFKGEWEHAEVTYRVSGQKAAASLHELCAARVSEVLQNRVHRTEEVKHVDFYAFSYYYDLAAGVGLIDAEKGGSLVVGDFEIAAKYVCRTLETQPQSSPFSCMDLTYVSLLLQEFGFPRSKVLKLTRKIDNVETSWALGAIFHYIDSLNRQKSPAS", "test": "ELISA on plate-coated recombinant huCD39 L2; the single curve has no legend on the sheet, I-394 by the legend paragraph 70", "experimental": "(§2) Wells were washed in TBS Tween 20, and further saturated 2H at RT in TBS Blocking buffer. Dose range concentration of primary antibody was incubated in TBS blocking buffer for 2 h at RT. Wells were washed in TBS Tween 20. […] Optical density was measured on Enspire™ at OD=450."}, "[4]": {"molecular_target": "T4, recombinant human CD39-L3 (NTPDase3, ENTPD3) (human, UniProt O75355 44-485, limits assumed)", "T4 construct": "Genbank NP_001239 is printed", "T4 sequence": "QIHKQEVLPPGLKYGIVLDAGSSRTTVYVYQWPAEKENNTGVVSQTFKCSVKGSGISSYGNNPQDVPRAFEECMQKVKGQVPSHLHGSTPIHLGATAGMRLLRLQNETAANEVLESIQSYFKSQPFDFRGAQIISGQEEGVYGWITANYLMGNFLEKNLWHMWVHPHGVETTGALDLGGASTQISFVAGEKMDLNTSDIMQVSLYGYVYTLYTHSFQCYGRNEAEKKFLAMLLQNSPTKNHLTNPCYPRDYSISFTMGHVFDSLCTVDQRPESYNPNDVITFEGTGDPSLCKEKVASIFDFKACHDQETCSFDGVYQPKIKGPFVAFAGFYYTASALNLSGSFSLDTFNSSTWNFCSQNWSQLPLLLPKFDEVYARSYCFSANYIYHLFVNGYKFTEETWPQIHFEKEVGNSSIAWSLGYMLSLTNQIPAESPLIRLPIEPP", "test": "ELISA on plate-coated recombinant huCD39 L3; the single curve has no legend on the sheet, I-394 by the legend paragraph 70", "experimental": "as §2"}, "[5]": {"molecular_target": "T1, human CD39 (vascular CD39, NTPDase1) …", "test": "flow cytometry on Hek-293T cells expressing wild-type CD39 (panel WT); unstained (US) median 10,3; antibody concentration not shown", "experimental": "Mutants were transfected in Hek-293T cells, as shown in the table 1, using numbering of SEQ ID NO: 1. […] Mutant 19 includes substitutions at residues R138, M139 and E142.\nIn order to define the epitopes of the further anti-CD39 antibodies of Example 5, they were tested for loss of binding to the panel of CD39 mutants as described in Example 1 and Table 1. Mutants were transfected in Hek-293T cells, as shown in the table 1, using numbering of SEQ ID NO: 1.Dose-ranges of test antibodies (10-2.5-0.625-0.1563-0.0391-0.0098-0.0024-0.0006 μg/ml) are tested on the 20 generated mutants by flow cytometry."}}}
{"binder": "B1", "values": [{"measurement": "EC50 (read off the curve)", "setting": "[1]", "result": "~0.2", "unit": "µg/mL"}, {"measurement": "binding result", "setting": "[2]", "result": "no binding (tested: 30 µg/ml)"}, {"measurement": "binding result", "setting": "[3]", "result": "no binding (tested: about 50 µg/ml)"}, {"measurement": "binding result", "setting": "[4]", "result": "no binding (tested: about 50 µg/ml)"}, {"measurement": "Median : Comp-Alexa Fluor 647-A", "setting": "[5]", "result": 3720}]}
